Data on 5 molecules can be found in paper PMC10663520, “Qa-SNARE syntaxin 18 mediates lipid droplet fusion with SNAP23 and SEC22B” (Cell Discovery, 2023).

The labels stand for the following.
T1: GST-Flag-STX18 (full-length) (UniProt Q9P2W9 1-335)
T1 construct: syntaxin 18 (STX18), full length, in pGEX-4T-1 with GST-TEV-3xFLAG at the N-terminus; C-terminus printed as 331-DWYDS-335; The methods describe only the TEV-cleaved preparation; also called GST-STX18; GST-Flag-tagged STX18; source: E. coli BL21 (C43), purified (Glutathione Sepharose 4B); not shown: GST, N-terminal, kept; 3xFLAG, N-terminal, kept
T1 sequence (looked up): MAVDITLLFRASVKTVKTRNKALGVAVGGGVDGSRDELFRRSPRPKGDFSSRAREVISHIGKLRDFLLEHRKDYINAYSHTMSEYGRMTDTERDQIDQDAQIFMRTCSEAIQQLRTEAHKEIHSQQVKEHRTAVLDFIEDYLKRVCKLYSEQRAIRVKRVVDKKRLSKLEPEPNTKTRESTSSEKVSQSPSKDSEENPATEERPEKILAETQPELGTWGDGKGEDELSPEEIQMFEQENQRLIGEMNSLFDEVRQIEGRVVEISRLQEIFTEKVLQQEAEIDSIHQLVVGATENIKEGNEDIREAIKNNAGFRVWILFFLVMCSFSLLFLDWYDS

B1: SEC22B-SNARE (134-194), individually purified (domain or fragment, UniProt O75396 134-194, looked up)
chain: NLGSINTELQDVQRIMVANIEEVLQRGEALSALDSKANNLSSLSKKYRQDAKYLNMRSTYA
notes: SEC22B, SNARE domain, residues 134-194, in pET28 with 6xHis at the N-terminus
B2: SNAP23 (full-length, purified) (natural protein, UniProt O00161 1-211, looked up)
chain: MDNLSSEEIQQRAHQITDESLESTRRILGLAIESQDAGIKTITMLDEQKEQLNRIEEGLDQINKDMRETEKTLTELNKCCGLCVCPCNRTKNFESGKAYKTTWGDGGENSPCNVVSKQPGPVTNGQLQQPTTGAASGGYIKRITNDAREDEMEENLTQVGSILGNLKDMALNIGNEIDAQNPQIKRITDKADTNRDRIDIANARAKKLIDS
notes: SNAP23, full length, in pGEX with N-terminal GST and a TEV site after it; The uncleaved form is called GST-Flag-SNAP23 in the pull-down methods; if a FLAG follows the TEV site it would remain here; also called purified SNAP23; source: E. coli BL21 (DE3), purified (Glutathione Sepharose 4B, TEV on beads); not shown: GST, N-terminal, cleaved
B3: GST-Flag-SNAP23 (natural protein, UniProt O00161 1-211, looked up)
chain: B2 chain
notes: SNAP23, full length, in pGEX with N-terminal GST and a TEV site after it; The cloning paragraph names no FLAG tag for this construct; the pull-down methods and legends call it GST-Flag-SNAP23; also called GST-SNAP23; GST-Flag-tagged SNAP23; source: E. coli BL21 (DE3), purified (Glutathione Sepharose 4B); not shown: GST, N-terminal, kept
B4: STX18-SNARE (243-305), individually purified (domain or fragment, UniProt Q9P2W9 243-305, looked up)
chain: IGEMNSLFDEVRQIEGRVVEISRLQEIFTEKVLQQEAEIDSIHQLVVGATENIKEGNEDIREA
notes: syntaxin 18 (STX18), SNARE domain, residues 243-305, in pGEX-4T-1 with GST-TEV-FLAG at the N-terminus; The TEV site lies between GST and FLAG, so the FLAG tag should remain after cleavage (surmised); source: E. coli BL21 (DE3), purified (Glutathione Sepharose 4B, TEV on beads, Superdex 75); not shown: GST, N-terminal, cleaved
B5: SEC22B (full-length, purified) (natural protein, UniProt O75396 1-215, looked up)
chain: MVLLTMIARVADGLPLAASMQEDEQSGRDLQQYQSQAKQLFRKLNEQSPTRCTLEAGAMTFHYIIEQGVCYLVLCEAAFPKKLAFAYLEDLHSEFDEQHGKKVPTVSRPYSFIEFDTFIQKTKKLYIDSRARRNLGSINTELQDVQRIMVANIEEVLQRGEALSALDSKANNLSSLSKKYRQDAKYLNMRSTYAKLAAVAVFFIMLIVYVRFWWL
notes: SEC22B, full length, in pGEX with N-terminal GST and a TEV site after it; C-terminus printed as 212-FWWL-215; The uncleaved form is called GST-Flag-SEC22B in the pull-down methods; if a FLAG follows the TEV site it would remain here; also called purified SEC22B; source: E. coli BL21 (C43), purified (Glutathione Sepharose 4B, TEV on beads); not shown: GST, N-terminal, cleaved

Holding throughout (conditions): both partners purified
For experiment [1], the target named is B2. Briefly: SEC; individually purified SNAP23, STX18-SNARE and SEC22B-SNARE, alone or as an in vitro incubated mixture of the three, on Superdex75 10/300 GL; SDS-PAGE of fractions.
Experiment [2] has as its target T1, GST-Flag-STX18 (full-length). The experiment in a line: pull-down; GST-Flag-tagged bait on GST agarose beads, 4 °C 1 h; 20 mM HEPES pH 7.4, 300 mM NaCl, 1 mM EDTA, 1% OG, 0.1% FOS-Choline-12; purified SEC22B (54.7 μM, 20 μL) or SNAP23 (280 μM, 5 μL) added; immunoblot and Coomassie.
In experiment [3] the target is B5. Described as above.

In the case of B1, the binding result in experiment [1] is “binds”. B2: in experiment [2], the binding result is given as “binds”. As for B3, in experiment [3], the binding result is “binds”.

Consider B4, for which the binding result in experiment [1] is recorded as “binds”. B5: in experiment [2], the binding result is given as “binds”.
